Assay results from patent publication US20020147129A1.
Where no end group is shown, it is not given here. [ ]: non-standard residue; d: D form. Nle = CCCC[C@H](N)C(=O)O

What was measured:
[1] = molecular target: embryonic chicken AT4 receptor (chicken); experiment: competition for [125I]Ang IV binding, E13 chicken chorioallantoic membranes
[2] = molecular target: embryonic chicken Ang II receptor (chicken); experiment: competition for 125I[Sar1Ile8]Ang II binding, E13 chicken chorioallantoic membranes
Sequence of embryonic chicken Ang II receptor (chicken) (P79785 whole entry): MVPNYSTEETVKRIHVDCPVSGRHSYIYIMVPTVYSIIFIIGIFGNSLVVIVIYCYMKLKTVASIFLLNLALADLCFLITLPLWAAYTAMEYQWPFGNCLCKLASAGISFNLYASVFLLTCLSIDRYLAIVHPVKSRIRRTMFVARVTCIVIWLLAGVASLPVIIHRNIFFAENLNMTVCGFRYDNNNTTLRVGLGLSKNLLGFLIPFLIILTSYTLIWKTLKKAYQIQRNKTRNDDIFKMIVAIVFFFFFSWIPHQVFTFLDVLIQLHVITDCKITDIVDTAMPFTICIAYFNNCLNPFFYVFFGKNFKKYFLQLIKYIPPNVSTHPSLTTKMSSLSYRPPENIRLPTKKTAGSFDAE

Sequence of embryonic chicken AT4 receptor (chicken) (F1NNE7 entry or part of it): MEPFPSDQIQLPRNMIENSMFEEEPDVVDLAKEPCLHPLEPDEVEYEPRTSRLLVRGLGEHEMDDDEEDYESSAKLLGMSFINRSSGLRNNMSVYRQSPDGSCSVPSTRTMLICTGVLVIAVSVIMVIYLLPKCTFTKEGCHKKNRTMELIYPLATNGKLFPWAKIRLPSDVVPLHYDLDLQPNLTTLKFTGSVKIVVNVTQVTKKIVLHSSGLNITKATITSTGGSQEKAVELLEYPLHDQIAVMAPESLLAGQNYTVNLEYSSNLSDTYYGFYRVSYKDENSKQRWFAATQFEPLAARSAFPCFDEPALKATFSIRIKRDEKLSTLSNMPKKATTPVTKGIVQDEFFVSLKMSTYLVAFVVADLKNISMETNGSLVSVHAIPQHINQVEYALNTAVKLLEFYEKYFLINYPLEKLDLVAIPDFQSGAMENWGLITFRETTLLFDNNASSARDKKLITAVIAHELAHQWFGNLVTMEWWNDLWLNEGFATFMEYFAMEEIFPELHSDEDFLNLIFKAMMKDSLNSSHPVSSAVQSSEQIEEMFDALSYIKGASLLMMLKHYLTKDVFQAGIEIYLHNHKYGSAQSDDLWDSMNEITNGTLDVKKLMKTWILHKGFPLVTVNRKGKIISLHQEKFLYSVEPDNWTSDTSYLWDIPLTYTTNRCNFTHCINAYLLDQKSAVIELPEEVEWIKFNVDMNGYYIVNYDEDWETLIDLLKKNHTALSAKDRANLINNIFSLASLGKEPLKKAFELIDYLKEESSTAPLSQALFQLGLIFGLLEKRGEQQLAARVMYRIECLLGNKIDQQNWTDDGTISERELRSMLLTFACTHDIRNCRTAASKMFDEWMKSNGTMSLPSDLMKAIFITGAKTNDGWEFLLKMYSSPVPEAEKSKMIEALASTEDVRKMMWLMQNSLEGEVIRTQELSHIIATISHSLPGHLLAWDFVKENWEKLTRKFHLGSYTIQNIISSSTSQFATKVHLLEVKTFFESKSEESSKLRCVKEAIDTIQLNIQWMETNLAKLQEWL

Binder: [Nle]YIHPF [Nle^1-AIV]
- IC50 [1]: 0.043 µM
- IC50 [2]: 8 µM
